B1: Receptor-type tyrosine-protein phosphatase eta (Homo sapiens), Q12913 (parent)
chain: MKPAAREARLPPRSPGLRWALPLLLLLLRLGQILCAGGTPSPIPDPSVATVATGENGITQISSTAESFHKQNGTGTPQVETNTSEDGESSGANDSLRTPEQGSNGTDGASQKTPSSTGPSPVFDIKAVSISPTNVILTWKSNDTAASEYKYVVKHKMENEKTITVVHQPWCNITGLRPATSYVFSITPGIGNETWGDPRVIKVITEPIPVSDLRVALTGVRKAALSWSNGNGTASCRVLLESIGSHEELTQDSRLQVNISGLKPGVQYNINPYLLQSNKTKGDPLGTEGGLDASNTERSRAGSPTAPVHDESLVGPVDPSSGQQSRDTEVLLVGLEPGTRYNATVYSQAANGTEGQPQAIEFRTNAIQVFDVTAVNISATSLTLIWKVSDNESSSNYTYKIHVAGETDSSNLNVSEPRAVIPGLRSSTFYNITVCPVLGDIEGTPGFLQVHTPPVPVSDFRVTVVSTTEIGLAWSSHDAESFQMHITQEGAGNSRVEITTNQSIIIGGLFPGTKYCFEIVPKGPNGTEGASRTVCNRTVPSAVFDIHVVYVTTTEMWLDWKSPDGASEYVYHLVIESKHGSNHTSTYDKAITLQGLIPGTLYNITISPEVDHVWGDPNSTAQYTRPSNVSNIDVSTNTTAATLSWQNFDDASPTYSYCLLIEKAGNSSNATQVVTDIGITDATVTELIPGSSYTVEIFAQVGDGIKSLEPGRKSFCTDPASMASFDCEVVPKEPALVLKWTCPPGANAGFELEVSSGAWNNATHLESCSSENGTEYRTEVTYLNFSTSYNISITTVSCGKMAAPTRNTCTTGITDPPPPDGSPNITSVSHNSVKVKFSGFEASHGPIKAYAVILTTGEAGHPSADVLKYTYEDFKKGASDTYVTYLIRTEEKGRSQSLSEVLKYEIDVGNESTTLGYYNGKLEPLGSYRACVAGFTNITFHPQNKGLIDGAESYVSFSRYSDAVSLPQDPGVICGAVFGCIFGALVIVTVGGFIFWRKKRKDAKNNEVSFSQIKPKKSKLIRVENFEAYFKKQQADSNCGFAEEYEDLKLVGISQPKYAAELAENRGKNRYNNVLPYDISRVKLSVQTHSTDDYINANYMPGYHSKKDFIATQGPLPNTLKDFWRMVWEKNVYAIIMLTKCVEQGRTKCEEYWPSKQAQDYGDITVAMTSEIVLPEWTIRDFTVKNIQTSESHPLRQFHFTSWPDHGVPDTTDLLINFRYLVRDYMKQSPPESPILVHCSAGVGRTGTFIAIDRLIYQIENENTVDVYGIVYDLRMHRPLMVQTEDQYVFLNQCVLDIVRSQKDSKVDLIYQNTTAMTIYENLAPVTTFGKTNGYIA

Variants of: B1
Settings: with flt3_human FLT3, P36888
Chain of flt3_human FLT3, P36888 (P36888 whole entry): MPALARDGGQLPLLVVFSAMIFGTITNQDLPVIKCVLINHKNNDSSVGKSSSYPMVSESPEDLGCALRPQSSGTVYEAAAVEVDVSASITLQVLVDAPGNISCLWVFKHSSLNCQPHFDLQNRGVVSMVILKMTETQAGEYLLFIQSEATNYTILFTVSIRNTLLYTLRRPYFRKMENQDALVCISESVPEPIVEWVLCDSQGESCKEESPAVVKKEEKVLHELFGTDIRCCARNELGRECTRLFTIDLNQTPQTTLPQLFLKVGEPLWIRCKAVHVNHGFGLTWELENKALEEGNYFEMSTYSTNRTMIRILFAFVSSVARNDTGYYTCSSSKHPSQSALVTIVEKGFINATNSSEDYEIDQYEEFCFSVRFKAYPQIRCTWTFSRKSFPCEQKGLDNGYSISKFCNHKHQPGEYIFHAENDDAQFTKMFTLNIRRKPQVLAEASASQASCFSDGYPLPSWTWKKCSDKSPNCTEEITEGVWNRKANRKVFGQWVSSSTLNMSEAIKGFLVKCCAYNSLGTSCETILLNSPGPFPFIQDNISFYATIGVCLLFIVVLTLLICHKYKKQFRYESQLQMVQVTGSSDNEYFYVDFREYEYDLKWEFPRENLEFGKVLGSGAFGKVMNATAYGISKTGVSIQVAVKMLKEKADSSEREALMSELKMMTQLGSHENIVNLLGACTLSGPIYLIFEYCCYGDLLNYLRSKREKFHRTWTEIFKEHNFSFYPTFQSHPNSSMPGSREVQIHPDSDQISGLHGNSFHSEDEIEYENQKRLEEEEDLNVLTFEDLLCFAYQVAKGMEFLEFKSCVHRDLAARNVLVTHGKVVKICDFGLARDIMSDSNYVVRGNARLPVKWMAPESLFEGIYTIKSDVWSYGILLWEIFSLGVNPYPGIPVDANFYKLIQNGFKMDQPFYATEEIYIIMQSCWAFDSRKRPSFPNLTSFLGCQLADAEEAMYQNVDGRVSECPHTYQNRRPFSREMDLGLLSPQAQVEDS

Variant | effect of a mutation on the interaction
C1239S | increasing interaction strength

— IntAct's records for PubMed 23650535
